Experimental data taken from patent US20230212549A1 (3B PHARMACEUTICALS, published 2023).
Values joined by “and” are separate entries in the source; they are usually repeats but may differ in a detail not shown here. Equal values may be shown once. Numbered stars: 1 amine (or outer) side, 2 acyl side, 3 side chain; on linkers, the order of the positions; unused ones are H or OH. Bridge positions count the residues as written; N and C are the ends. Square brackets hold non-standard residues; d marks the D form. Primed or numbered codes have the meaning given here. * marks the point of attachment. Ttds″ = 1,13-diamino-4,7,10-trioxatridecan-succinamic acid spacer, O=C(CCC(=O)[*:2])NCCCOCCOCCOCCCN[*:1]; Ttds = 1,13-diamino-4,7,10-trioxatridecan-succinamic acid, O=C(CCC(=O)[*:2])NCCCOCCOCCOCCCN[*:1]; DOTA = O=C(O)CN1CCN(CC(=O)O)CCN(CC(=O)*)CCN(CC(=O)O)CC1; 1Nal = N[C@@H](Cc1cccc2ccccc12)C(=O)O; mXylylene = c1cc(C[*:1])cc(C[*:2])c1; Hyp = O=C(O)[C@@H]1C[C@@H](O)CN1; PentylNH‑urea = CCCCCNC(=O)*; Octanoyl = CCCCCCCC(=O)*; Hexanoyl = CCCCCC(=O)*

How the values were obtained:
[1] = target: Recombinant human FAP (R&D systems, #3715-SE) (human, UniProt Q12884 26-760); assay: cell-based or functional assay
[2] = target: T1, fibroblast activation protein (FAP) on FAP-expressing human WI-38 fibroblasts (human, UniProt Q12884 1-760); assay: competitive FACS, WI-38 cells, vs Cy5 tracer m3; B = pIC50 7.1-8.0
T1 construct: also called human FAP

| Binder | pIC50 Category (Activity) [1] | pIC50 Category (FACS) [2] |
| --- | --- | --- |
| Ac-M[dC]PPTEF[dC]DHFRD-NH2 (linker 2-8 via mXylylene; SMILES CSCC[C@H](NC(C)=O)C(=O)N[C@@H]1CSCc2cccc(c2)CSC[C@H](C(=O)N[C@@H](CC(=O)O)C(=O)N[C@@H](Cc2c[nH]cn2)C(=O)N[C@@H](Cc2ccccc2)C(=O)N[C@@H](CCCNC(=N)N)C(=O)N[C@@H](CC(=O)O)C(N)=O)NC(=O)[C@H](Cc2ccccc2)NC(=O)[C@H](CCC(=O)O)NC(=O)[C@H]([C@@H](C)O)NC(=O)[C@@H]2CCCN2C(=O)[C@@H]2CCCN2C1=O, also called 3BP-3181) [Ac-Met-[cys(3MeBn)-Pro-Pro-Thr-Glu-Phe-cys]-Asp-His-Phe-Arg-Asp-NH2] | 7.1 pIC50 and 8 pIC50 | 7.1 pIC50 and 8 pIC50 |
| MCPPTQFC (N-term acetyl; D-Met1; Cys2/Cys8 thioether-bridged by tMeBn carrying DOTA-AET; C-term free acid, also called 3BP-3682) [Ac-met-[Cys(tMeBn(DOTA-AET))-Pro-Pro-Thr-Gln-Phe-Cys]-OH] | 7.1 pIC50 and 8 pIC50 | 7.1 pIC50 and 8 pIC50 |
| Ac-MCPPTEFC[dD]HFRD-NH2 (linker 2-8 via mXylylene; SMILES CSCC[C@H](NC(C)=O)C(=O)N[C@H]1CSCc2cccc(c2)CSC[C@@H](C(=O)N[C@H](CC(=O)O)C(=O)N[C@@H](Cc2c[nH]cn2)C(=O)N[C@@H](Cc2ccccc2)C(=O)N[C@@H](CCCNC(=N)N)C(=O)N[C@@H](CC(=O)O)C(N)=O)NC(=O)[C@H](Cc2ccccc2)NC(=O)[C@H](CCC(=O)O)NC(=O)[C@H]([C@@H](C)O)NC(=O)[C@@H]2CCCN2C(=O)[C@@H]2CCCN2C1=O, also called 3BP-3183) [Ac-Met-[Cys(3MeBn)-Pro-Pro-Thr-Glu-Phe-Cys]-asp-His-Phe-Arg-Asp-NH2] | 7.1 pIC50 and 8 pIC50 | 7.1 pIC50 and 8 pIC50 |
| Ac-MCPP[dT]EFCDHFRD-NH2 (linker 2-8 via mXylylene; SMILES CSCC[C@H](NC(C)=O)C(=O)N[C@H]1CSCc2cccc(c2)CSC[C@@H](C(=O)N[C@@H](CC(=O)O)C(=O)N[C@@H](Cc2c[nH]cn2)C(=O)N[C@@H](Cc2ccccc2)C(=O)N[C@@H](CCCNC(=N)N)C(=O)N[C@@H](CC(=O)O)C(N)=O)NC(=O)[C@H](Cc2ccccc2)NC(=O)[C@H](CCC(=O)O)NC(=O)[C@@H]([C@H](C)O)NC(=O)[C@@H]2CCCN2C(=O)[C@@H]2CCCN2C1=O, also called 3BP-3178) [Ac-Met-[Cys(3MeBn)-Pro-Pro-thr-Glu-Phe-Cys]-Asp-His-Phe-Arg-Asp-NH2] | 7.1 pIC50 and 8 pIC50 | 7.1 pIC50 and 8 pIC50 |
| Hexanoyl-CPPTE[1Nal]C-NH2 (linker 1-7 via mXylylene; SMILES CCCCCC(=O)N[C@H]1CSCc2cccc(c2)CSC[C@@H](C(N)=O)NC(=O)[C@H](Cc2cccc3ccccc23)NC(=O)[C@H](CCC(=O)O)NC(=O)[C@H]([C@@H](C)O)NC(=O)[C@@H]2CCCN2C(=O)[C@@H]2CCCN2C1=O, also called 3BP-3361) [Hex-[Cys(3MeBn)-Pro-Pro-Thr-Glu-1Ni-Cys]-NH2] | 7.1 pIC50 and 8 pIC50 | 7.1 pIC50 and 8 pIC50 |
| Hexanoyl-CP[Hyp]TEFC-NH2 (linker 1-7 via mXylylene; SMILES CCCCCC(=O)N[C@H]1CSCc2cccc(c2)CSC[C@@H](C(N)=O)NC(=O)[C@H](Cc2ccccc2)NC(=O)[C@H](CCC(=O)O)NC(=O)[C@H]([C@@H](C)O)NC(=O)[C@@H]2C[C@@H](O)CN2C(=O)[C@@H]2CCCN2C1=O, also called 3BP-3366) [Hex-[Cys(3MeBn)-Pro-Hyp-Thr-Glu-Phe-Cys]-NH2] | 7.1 pIC50 and 8 pIC50 | 7.1 pIC50 and 8 pIC50 |
| Hexanoyl-CPPTQFCD-NH2 (linker 1-7 via tMeBn(DOTA-NH), also called 3BP-3556) [Hex-[Cys(tMeBn(DOTA-NH))-Pro-Pro-Thr-Gln-Phe-Cys]-Asp-NH2] | 7.1 pIC50 and 8 pIC50 | 7.1 pIC50 and 8 pIC50 |
| Ac-MCPPTEFCAHFRD-NH2 (linker 2-8 via mXylylene; SMILES CSCC[C@H](NC(C)=O)C(=O)N[C@H]1CSCc2cccc(c2)CSC[C@@H](C(=O)N[C@@H](C)C(=O)N[C@@H](Cc2c[nH]cn2)C(=O)N[C@@H](Cc2ccccc2)C(=O)N[C@@H](CCCNC(=N)N)C(=O)N[C@@H](CC(=O)O)C(N)=O)NC(=O)[C@H](Cc2ccccc2)NC(=O)[C@H](CCC(=O)O)NC(=O)[C@H]([C@@H](C)O)NC(=O)[C@@H]2CCCN2C(=O)[C@@H]2CCCN2C1=O, also called 3BP-3194) [Ac-Met-[Cys(3MeBn)-Pro-Pro-Thr-Glu-Phe-Cys]-Ala-His-Phe-Arg-Asp-NH2] | 7.1 pIC50 and 8 pIC50 | 7.1 pIC50 and 8 pIC50 |
| {PentylNH‑urea}-CPPTQFCD-NH2 (linker 1-7 via mXylylene; SMILES CCCCCNC(=O)N[C@H]1CSCc2cccc(c2)CSC[C@@H](C(=O)N[C@@H](CC(=O)O)C(N)=O)NC(=O)[C@H](Cc2ccccc2)NC(=O)[C@H](CCC(N)=O)NC(=O)[C@H]([C@@H](C)O)NC(=O)[C@@H]2CCCN2C(=O)[C@@H]2CCCN2C1=O, also called 3BP-3425) [PentylNH-urea-[Cys(3MeBn)-Pro-Pro-Thr-Gln-Phe-Cys]-Asp-NH2] | > 8 pIC50 | 7.1 pIC50 and 8 pIC50 |
| Ac-MCPPTEF[dC]DHFRD-NH2 (linker 2-8 via mXylylene; SMILES CSCC[C@H](NC(C)=O)C(=O)N[C@H]1CSCc2cccc(c2)CSC[C@H](C(=O)N[C@@H](CC(=O)O)C(=O)N[C@@H](Cc2c[nH]cn2)C(=O)N[C@@H](Cc2ccccc2)C(=O)N[C@@H](CCCNC(=N)N)C(=O)N[C@@H](CC(=O)O)C(N)=O)NC(=O)[C@H](Cc2ccccc2)NC(=O)[C@H](CCC(=O)O)NC(=O)[C@H]([C@@H](C)O)NC(=O)[C@@H]2CCCN2C(=O)[C@@H]2CCCN2C1=O, also called 3BP-3182) [Ac-Met-[Cys(3MeBn)-Pro-Pro-Thr-Glu-Phe-cys]-Asp-His-Phe-Arg-Asp-NH2] | 7.1 pIC50 and 8 pIC50 | 7.1 pIC50 and 8 pIC50 |
| {DOTA}-[Ttds″]ECPPTEFCDHFRD-NH2 (linker 3-9 via mXylylene; SMILES C[C@@H](O)[C@@H]1NC(=O)[C@@H]2CCCN2C(=O)[C@@H]2CCCN2C(=O)[C@@H](NC(=O)[C@H](CCC(=O)O)NC(=O)CCC(=O)NCCCOCCOCCOCCCNC(=O)CN2CCN(CC(=O)O)CCN(CC(=O)O)CCN(CC(=O)O)CC2)CSCc2cccc(c2)CSC[C@@H](C(=O)N[C@@H](CC(=O)O)C(=O)N[C@@H](Cc2c[nH]cn2)C(=O)N[C@@H](Cc2ccccc2)C(=O)N[C@@H](CCCNC(=N)N)C(=O)N[C@@H](CC(=O)O)C(N)=O)NC(=O)[C@H](Cc2ccccc2)NC(=O)[C@H](CCC(=O)O)NC1=O, also called 3BP-3173) [DOTA-Ttds-Glu-[Cys(3MeBn)-Pro-Pro-Thr-Glu-Phe-Cys]-Asp-His-Phe-Arg-Asp-NH2] | 7.1 pIC50 and 8 pIC50 | 7.1 pIC50 and 8 pIC50 |
| {DOTA}-[Ttds]FCPPTEFCDHFRD-NH2 (linker 3-9 via mXylylene; SMILES C[C@@H](O)[C@@H]1NC(=O)[C@@H]2CCCN2C(=O)[C@@H]2CCCN2C(=O)[C@@H](NC(=O)[C@H](Cc2ccccc2)NC(=O)CCC(=O)NCCCOCCOCCOCCCNC(=O)CN2CCN(CC(=O)O)CCN(CC(=O)O)CCN(CC(=O)O)CC2)CSCc2cccc(c2)CSC[C@@H](C(=O)N[C@@H](CC(=O)O)C(=O)N[C@@H](Cc2c[nH]cn2)C(=O)N[C@@H](Cc2ccccc2)C(=O)N[C@@H](CCCNC(=N)N)C(=O)N[C@@H](CC(=O)O)C(N)=O)NC(=O)[C@H](Cc2ccccc2)NC(=O)[C@H](CCC(=O)O)NC1=O, also called 3BP-3171) [DOTA-Ttds-Phe-[Cys(3MeBn)-Pro-Pro-Thr-Glu-Phe-Cys]-Asp-His-Phe-Arg-Asp-NH2] | 7.1 pIC50 and 8 pIC50 | 7.1 pIC50 and 8 pIC50 |
| Octanoyl-CPPTQFCD-NH2 (linker 1-7 via mXylylene; SMILES CCCCCCCC(=O)N[C@H]1CSCc2cccc(c2)CSC[C@@H](C(=O)N[C@@H](CC(=O)O)C(N)=O)NC(=O)[C@H](Cc2ccccc2)NC(=O)[C@H](CCC(N)=O)NC(=O)[C@H]([C@@H](C)O)NC(=O)[C@@H]2CCCN2C(=O)[C@@H]2CCCN2C1=O, also called 3BP-3417) [Oct-[Cys(3MeBn)-Pro-Pro-Thr-Gln-Phe-Cys]-Asp-NH2] | 7.1 pIC50 and 8 pIC50 | 7.1 pIC50 and 8 pIC50 |
| Ac-MCPPT[dE]FCDHFRD-NH2 (linker 2-8 via mXylylene; SMILES CSCC[C@H](NC(C)=O)C(=O)N[C@H]1CSCc2cccc(c2)CSC[C@@H](C(=O)N[C@@H](CC(=O)O)C(=O)N[C@@H](Cc2c[nH]cn2)C(=O)N[C@@H](Cc2ccccc2)C(=O)N[C@@H](CCCNC(=N)N)C(=O)N[C@@H](CC(=O)O)C(N)=O)NC(=O)[C@H](Cc2ccccc2)NC(=O)[C@@H](CCC(=O)O)NC(=O)[C@H]([C@@H](C)O)NC(=O)[C@@H]2CCCN2C(=O)[C@@H]2CCCN2C1=O, also called 3BP-3179) [Ac-Met-[Cys(3MeBn)-Pro-Pro-Thr-glu-Phe-Cys]-Asp-His-Phe-Arg-Asp-NH2] | 6.1 pIC50 and 7 pIC50 | 7.1 pIC50 and 8 pIC50 |
| Hexanoyl-CPPTQWC-NH2 (linker 1-7 via mXylylene; SMILES CCCCCC(=O)N[C@H]1CSCc2cccc(c2)CSC[C@@H](C(N)=O)NC(=O)[C@H](Cc2c[nH]c3ccccc23)NC(=O)[C@H](CCC(N)=O)NC(=O)[C@H]([C@@H](C)O)NC(=O)[C@@H]2CCCN2C(=O)[C@@H]2CCCN2C1=O, also called 3BP-3408) [Hex-[Cys(3MeBn)-Pro-Pro-Thr-Gln-Trp-Cys]-NH2] | 7.1 pIC50 and 8 pIC50 | 7.1 pIC50 and 8 pIC50 |
| Hexanoyl-CPPTEFC-OH (linker 1-7 via mXylylene; SMILES CCCCCC(=O)N[C@H]1CSCc2cccc(c2)CSC[C@@H](C(=O)O)NC(=O)[C@H](Cc2ccccc2)NC(=O)[C@H](CCC(=O)O)NC(=O)[C@H]([C@@H](C)O)NC(=O)[C@@H]2CCCN2C(=O)[C@@H]2CCCN2C1=O, also called 3BP-3370) [Hex-[Cys(3MeBn)-Pro-Pro-Thr-Glu-Phe-Cys]-OH] | 7.1 pIC50 and 8 pIC50 | 7.1 pIC50 and 8 pIC50 |
| Ac-MCP[dP]TEFCDHFRD-NH2 (linker 2-8 via mXylylene; SMILES CSCC[C@H](NC(C)=O)C(=O)N[C@H]1CSCc2cccc(c2)CSC[C@@H](C(=O)N[C@@H](CC(=O)O)C(=O)N[C@@H](Cc2c[nH]cn2)C(=O)N[C@@H](Cc2ccccc2)C(=O)N[C@@H](CCCNC(=N)N)C(=O)N[C@@H](CC(=O)O)C(N)=O)NC(=O)[C@H](Cc2ccccc2)NC(=O)[C@H](CCC(=O)O)NC(=O)[C@H]([C@@H](C)O)NC(=O)[C@H]2CCCN2C(=O)[C@@H]2CCCN2C1=O, also called 3BP-3177) [Ac-Met-[Cys(3MeBn)-Pro-pro-Thr-Glu-Phe-Cys]-Asp-His-Phe-Arg-Asp-NH2] | 7.1 pIC50 and 8 pIC50 | 7.1 pIC50 and 8 pIC50 |
